According to article PMC10527606:

Tests used:
[1] = target: humanized 5c8 (hu5c8) (human (humanized antibody)); test: SPR
TNX-1500 (human) = test: SPR

“FcγRIIIaV (from UniProt P08637 17-208) (receptor)” showed a Kd [1] of 330 nM.

For “FcγRIIIaF (from UniProt P08637 17-208) (receptor)”, the Kd [1] was 1700 nM.

“FcγRIIbF (from UniProt P31994 43-217) (receptor)” gave a Kd [1] of 970 nM.

Work on “FcγRIa (from UniProt P12314 16-292) (receptor)” yielded a Kd [1] of 0.033 nM and a Kd (TNX-1500 (human)) of 8.7 nM.

Work on “FcγRIIaH (from UniProt P12318 34-217) (receptor)” yielded a Kd [1] of 510 nM and a Kd (TNX-1500 (human)) of 7100 nM.
